Data from paper PMC2191977 (The Journal of Experimental Medicine, 1995).
Residue numbers refer to the chain shown, from its start.

Assays:
Assay in all cases: flow cytometry on cells
B7 Y201A = biological target: T1, B7 Y201A (mouse, UniProt Q00609 38-306, Y201A)
T1 sequence (looked up): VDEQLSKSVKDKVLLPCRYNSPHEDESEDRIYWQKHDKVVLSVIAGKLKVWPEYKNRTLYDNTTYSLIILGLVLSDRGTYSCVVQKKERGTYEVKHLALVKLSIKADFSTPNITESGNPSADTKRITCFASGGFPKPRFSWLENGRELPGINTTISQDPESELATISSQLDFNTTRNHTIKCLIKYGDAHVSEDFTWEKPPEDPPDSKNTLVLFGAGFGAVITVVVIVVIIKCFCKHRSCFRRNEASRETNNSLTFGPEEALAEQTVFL

B7 LE/VD (L179V, E180D) = biological target: T2, B7 LE/VD (L179V, E180D) (mouse, UniProt Q00609 38-306, L179E180>VD)
T2 sequence (looked up): T1 sequence (looked up) with L142V, E143D, A164Y

B7 R175S = biological target: T3, B7 R175S (mouse, UniProt Q00609 38-306, R175>S (CGC>AGC))
T3 sequence (looked up): T1 sequence (looked up) with R138S, A164Y

B7 S177A = biological target: T4, B7 S177A (mouse, UniProt Q00609 38-306, S177A)
T4 sequence (looked up): T1 sequence (looked up) with S140A, A164Y

B7 P172A = biological target: T5, B7 P172A (mouse, UniProt Q00609 38-306, P172A)
T5 sequence (looked up): T1 sequence (looked up) with P135A, A164Y

B7 E199A = biological target: T6, B7 E199A (mouse, UniProt Q00609 38-306, E199A)
T6 sequence (looked up): T1 sequence (looked up) with E162A, A164Y

% wild-type B7 binding (normalised to anti-B7 mAb 10.16A.1) (B7 Y201A): 3%
MF (mean fluorescence, control subtracted) (B7 Y201A): 1 MF
% wild-type B7 binding (normalised to anti-B7 mAb 10.16A.1) (B7 LE/VD (L179V, E180D)): 40%
MF (mean fluorescence, control subtracted) (B7 LE/VD (L179V, E180D)): 16 MF
% wild-type B7 binding (normalised to anti-B7 mAb 10.16A.1) (B7 R175S): 26%
MF (mean fluorescence, control subtracted) (B7 R175S): 15 MF
% wild-type B7 binding (normalised to anti-B7 mAb 10.16A.1) (B7 S177A): 63%
MF (mean fluorescence, control subtracted) (B7 S177A): 40 MF
% wild-type B7 binding (normalised to anti-B7 mAb 10.16A.1) (B7 P172A): 7%
MF (mean fluorescence, control subtracted) (B7 P172A): 2 MF
% wild-type B7 binding (normalised to anti-B7 mAb 10.16A.1) (B7 E199A): 31%
MF (mean fluorescence, control subtracted) (B7 E199A): 16 MF
B1: CD28Ig (Fc fusion, mouse, UniProt P31041 20-150, looked up)
chain: NKILVKQSPLLVVDSNEVSLSCRYSYNLLAKEFRASLYKGVNSDVEVCVGNGNFTYQPQFRSNAEFNCDGDFDNETVTFRLWNLHVNHTDIYFCKIEFMYPPPYLDNERSNGTIIHIKEKHLCHTQSSPKL
